Results reported in paper PMC6629437 (Cell, 2019).

T1: HA head domain of H1 A/Solomon Islands/3/2006 (Influenza A virus A/Solomon …, strain)
T1 chain: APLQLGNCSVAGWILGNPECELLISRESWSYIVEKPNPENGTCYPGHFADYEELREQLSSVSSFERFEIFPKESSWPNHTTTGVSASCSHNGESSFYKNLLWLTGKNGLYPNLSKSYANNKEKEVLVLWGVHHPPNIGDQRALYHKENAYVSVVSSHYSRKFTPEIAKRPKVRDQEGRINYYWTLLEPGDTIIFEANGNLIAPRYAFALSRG


Legend:
[1] = target: T1, HA head domain of H1 A/Solomon …; assay: BLI
H1 HA of A/Texas/36/1991 = H1 HA of A/Texas/36/1991 (Influenza A virus A/Texas/36/1991 (H1N1), UniProt Q6WG02, strain); assay: ELISA

Row | Binder | binding result [1] | binding result (H1 HA of A/Texas/36/1991)
1 | rFluA-20 Fab (Fab, V domains shown) VH: QVQLEESGPGLVKPSETLSLTCSVSGVSVTSDIYYWTWIRQPPGKGLEWIGYIFYNGDTNYNPSLKSRVTMSIDTSKNEFSLRLTSVTAADTAVYFCARGTEDLGYCSSGSCPNHWGQGTLVTVSS VL: DIVMTQSPSSLSASIGDRVTITCRPSQNIRSFLNWFQHKPGKAPKLLIYAASNLQSGVPSRFSGSGSGTEFTLTIRSLQPEDFATYYCQQSYNTPPTFGQGTKVEIK | binds | –
2 | rFluA-20 IgG Q55A (L) (antibody, V domains shown) VH: QVQLEESGPGLVKPSETLSLTCSVSGVSVTSDIYYWTWIRQPPGKGLEWIGYIFYNGDTNYNPSLKSRVTMSIDTSKNEFSLRLTSVTAADTAVYFCARGTEDLGYCSSGSCPNHWGQGTLVTVSS VL: DIVMTQSPSSLSASIGDRVTITCRPSQNIRSFLNWFQHKPGKAPKLLIYAASNLASGVPSRFSGSGSGTEFTLTIRSLQPEDFATYYCQQSYNTPPTFGQGTKVEIK | – | binds
3 | rFluA-20 IgG Y49A (L) (antibody, V domains shown) VH: QVQLEESGPGLVKPSETLSLTCSVSGVSVTSDIYYWTWIRQPPGKGLEWIGYIFYNGDTNYNPSLKSRVTMSIDTSKNEFSLRLTSVTAADTAVYFCARGTEDLGYCSSGSCPNHWGQGTLVTVSS VL: DIVMTQSPSSLSASIGDRVTITCRPSQNIRSFLNWFQHKPGKAPKLLIAAASNLQSGVPSRFSGSGSGTEFTLTIRSLQPEDFATYYCQQSYNTPPTFGQGTKVEIK | – | no binding (tested: 10 μg/mL)
4 | rFluA-20 IgG D98A (H) (antibody, V domains shown) VH: QVQLEESGPGLVKPSETLSLTCSVSGVSVTSDIYYWTWIRQPPGKGLEWIGYIFYNGDTNYNPSLKSRVTMSIDTSKNEFSLRLTSVTAADTAVYFCARGTEALGYCSSGSCPNHWGQGTLVTVSS VL: DIVMTQSPSSLSASIGDRVTITCRPSQNIRSFLNWFQHKPGKAPKLLIYAASNLQSGVPSRFSGSGSGTEFTLTIRSLQPEDFATYYCQQSYNTPPTFGQGTKVEIK | – | no binding (tested: 10 μg/mL)
